# Numbering of substitutions follows the chain as printed. Names may count otherwise.
# B1: RecB nuclease motif peptide (KQVEMEFY) (peptide)
# peptide: Ac-KQVEMEFY-NH2
# notes: also called QVEMEF peptide; RecB-derived QVEMEF peptide; source: synthetic peptide; bought: TAG Copenhagen
# B2: Pol III internal peptide (GQADMFG) (peptide)
# peptide: Ac-GQADMFG-NH2
# notes: also called QADMF peptide; source: synthetic peptide; bought: TAG Copenhagen
# B3: RecBF489A: RecB with an F489A substitution in the QALRF motif (protein, UniProt P08394 2-1180, looked up, variant F489A)
# RecBCD enzyme subunit RecB: SDVAETLDPLRLPLQGERLIEASAGTGKTFTIAALYLRLLLGLGGSAAFPRPLTVEELLVVTFTEAATAELRGRIRSNIHELRIACLRETTDNPLYERLLEEIDDKAQAAQWLLLAERQMDEAAVFTIHGFCQRMLNLNAFESGMLFEQQLIEDESLLRYQACADFWRRHCYPLPREIAQVVFETWKGPQALLRDINRYLQGEAPVIKAPPPDDETLASRHAQIVARIDTVKQQWRDAVGELDALIESSGIDRRKFNRSNQAKWIDKISAWAEEETNSYQLPESLEKFSQRFLEDRTKAGGETPRHPLFEAIDQLLAEPLSIRDLVITRALAEIRETVAREKRRRGELGFDDMLSRLDSALRSESGEVLAAAIRTRFPVAMIDEFQDTDPQQYRIFRRIWHHQPETALLLIGDPKQAIYAFRGADIFTYMKARSEVHAHYTLDTNWRSAPGMVNSVNKLFSQTDDAFMFREIPFIPVKSAGKNQALRAVFKGETQPAMKMWLMEGESCGVGDYQSTMAQVCAAQIRDWLQAGQRGEALLMNGDDARPVRASDISVLVRSRQEAAQVRDALTLLEIPSVYLSNRDSVFETLEAQEMLWLLQAVMTPERENTLRSALATSMMGLNALDIETLNNDEHAWDVVVEEFDGYRQIWRKRGVMPMLRALMSARNIAENLLATAGGERRLTDILHISELLQEAGTQLESEHALVRWLSQHILEPDSNASSQQMRLESDKHLVQIVTIHKSKGLEYPLVWLPFITNFRVQEQAFYHDRHSFEAVLDLNAAPESVDLAEAERLAEDLRLLYVALTRSVWHCSLGVAPLVRRRGDKKGDTDVHQSALGRLLQKGEPQDAAGLRTCIEALCDDDIAWQTAQTGDNQPWQVNDVSTAELNAKTLQRLPGDNWRVTSYSGLQQRGHGIAQDLMPRLDVDAAGVASVVEEPTLTPHQFPRGASPGTFLHSLFEDLDFTQPVDPNWVREKLELGGFESQWEPVLTEWITAVLQAPLNETGVSLSQLSARNKQVEMEFYLPISEPLIASQLDTLIRQFDPLSAGCPPLEFMQVRGMLKGFIDLVFRHEGRYYLLDYKSNWLGEDSSAYTQQAMAAAMQAHRYDLQYQLYTLALHRYLRHRIADYDYEHHFGGVIYLFLRGVDKEHPQQGIYTTRPNAGLIALMDEMFAGMTLEEA
# B4: D1080A: RecB mutation that disrupts the interaction between RecB and RecA (protein, UniProt P08394 2-1180, looked up, variant D1080A)
# RecBCD enzyme subunit RecB: B3 RecBCD enzyme subunit RecB with A488F, D1079A
# B5: Pol III C-terminal peptide (EQVELEFD) (peptide)
# peptide: EQVELEFD
# notes: free termini; also called QVELEF peptide; source: synthetic peptide; bought: TAG Copenhagen
# Experiments:
# β-clamp = β-clamp (Escherichia coli, UniProt P0A988); assay: Saturation transfer difference (STD)-NMR of peptides with β-clamp; format: binding; design: made in house; conditions: 150 µM peptide, 1.5 µM β-clamp; 25°C; 20 mM sodium phosphate, 100 mM NaCl, 5 mM DTT, 0.3% DMSO, 5% D2O, pH 7.4; 600 MHz
# Chain of β-clamp (P0A988 whole entry): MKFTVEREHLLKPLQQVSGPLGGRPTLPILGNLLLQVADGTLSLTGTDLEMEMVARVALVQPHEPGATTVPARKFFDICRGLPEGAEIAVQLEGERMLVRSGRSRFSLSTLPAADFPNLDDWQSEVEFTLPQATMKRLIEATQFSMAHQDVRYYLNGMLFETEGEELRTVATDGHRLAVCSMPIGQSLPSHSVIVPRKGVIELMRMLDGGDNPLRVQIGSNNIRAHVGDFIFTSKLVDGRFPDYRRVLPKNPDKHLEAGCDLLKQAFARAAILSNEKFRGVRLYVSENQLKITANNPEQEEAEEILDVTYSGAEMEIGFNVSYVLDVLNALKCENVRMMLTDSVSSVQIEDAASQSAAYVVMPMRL
# Description: All peptides, except Pol III C-terminal ([sequence]), were N-terminally acetylated and C-terminally amidated to remove charges in the N-and C-termini, not present in the context of the full-length proteins.
# Unlabeled and ^2H, ^13C, ^15N-labeled E. coli β-clamp was expressed and purified as previously described [54]. The β-clamp concentration was determined by absorbance at 280 nm measured on a NanoDrop ND-1000 spectrophotometer (Thermo Fisher Scientific Inc.) and using an extinction coefficient calculated by the Expasy ProtParam web tool (https://web.expasy.org/protparam/) [55]. All β-clamp concentrations are listed as the protomer concentration. The peptides were readily soluble at micromolar concentration, although at high micromolar concentrations, we cannot rule out the presence of aggregates.
# Saturation transfer difference (STD)-nuclear magnetic resonance (NMR) experiments were performed at 25°C on a Bruker Avance III HD 600 MHz NMR spectrometer equipped with a 5-mm QCI Cryoprobe. […] Samples were transferred to 5-mm NMR tubes.
# [1] = molecular target: T1, Escherichia coli β-clamp (DnaN), recombinantly expressed and purified (Escherichia coli, UniProt P0A988 1-366); assay: ITC; 278-294 µM β-clamp in the syringe titrated into 70.6 µM peptide in the cell; 20 mM sodium phosphate, 100 mM NaCl, 1 mM TCEP, 0.02% DMSO, pH 7.4, 25°C; one-site model; three replicates; conditions: both partners purified
# T1 construct: β-clamp (dnaN), E. coli; homodimer; Unlabeled in STD-NMR and ITC; 2H,13C,15N-labeled in the TROSY-HSQC experiments; also called DNA sliding clamp; source: recombinantly expressed and purified as previously described [54]
# T1 sequence (P0A988 whole entry): as above
# [2] = molecular target: T1, Escherichia coli β-clamp (DnaN), …; assay: STD-NMR; 150 µM peptide with 1.5 µM unlabeled β-clamp, 20 mM sodium phosphate, 100 mM NaCl, 5 mM DTT, 0.3% DMSO, pH 7.4, 25°C; conditions: both partners purified
# BTH101 ΔrecB cells = assay: Western blot of RecB expression level; design: species or system Escherichia coli; conditions: pUT18C constructs in BTH101 ΔrecB; Ponceau S normalized; relative to BTH101 wild type
# Description: Samples, including purified RecB, β-clamp (purified as previously explained for co-immunoprecipitation), input (10 µg; 0.5%), and pull-down eluates, and samples from BTH101 cultures used in survival assays, were mixed with 1 mM dithiothreitol (DTT) and 1× NuPAGE LDS sample buffer, then heated to 75°C for 10 min. […] SeeBlue Plus2 Pre-stained Protein Standard (Invitrogen) was used as a molecular weight marker.
# Proteins were transferred onto 0.2-µm nitrocellulose membranes using the Trans-Blot Turbo Transfer System (Bio-Rad), and membranes were blocked in 5% (w/v) skim milk (Merck) in PBS-T (PBS with 0.1% Tween-20) for 45–60 min at room temperature. […] Following protein transfer, these membranes were also incubated in 0.1% (w/v) Ponceau S solution for 5 min to verify transfer efficiency and account for total protein loading. The stain was visualized, imaged for densitometric normalization, and subsequently removed by washing with deionized water prior to blocking. […]
# Relative RecB levels were quantified from the western blot images using Fiji (ImageJ) [58]. […] The lane profiles were plotted, and the measured signal from each lane was first normalized to the relevant Ponceau stain signal from the same lane and then to the wild-type strain.
# ΔrecA ΔrecB cells [3] = assay: Basal DNA content without UV; format: cell-based, Escherichia coli; conditions: expressed from pUT18C in ΔrecA ΔrecB; no UV; compared to wild-type RecB
# Description: (§1) IMR13 (ΔrecA) served as a positive control for RecB-mediated DNA degradation, while IMR19 (ΔrecA ΔrecB) was used as a negative control.
# (§2) Overnight cultures were diluted to an OD600 of 0.01 into LB medium supplemented with appropriate antibiotics and incubated with shaking at 37°C until they reached an OD600 of 0.2. Each culture was split into two 1 ml aliquots. One aliquot was fixed immediately in ethanol (50% final concentration) to assess DNA content prior to UV exposure. The second aliquot was pelleted, resuspended in 1× PBS, and exposed to UV light at a dose of 50 J/m^2 (CL-1000 Ultraviolet crosslinker, UVP). […]
# (§3) Imaging was performed on a Leica DM6000 B fluorescence microscope equipped with a 100× oil immersion objective (Leica HCX Plan Apochromat 100×, 1.40 NA, PH3 CS), a Leica EL6000 metal-halide illumination system, and a Hamamatsu C9100-14 EM-CCD camera. For each sample, six fields of view were acquired, each including both phase-contrast and fluorescence channels. Fluorescence imaging was conducted using a narrow band-pass filter set optimized for CFP (Excitation: 426–446 nm; Emission: 460–500 nm; exposure time: 30 ms). All imaging parameters—including exposure time, illumination intensity, and gain—were kept constant across all strains, treatments, and replicates to ensure quantitative comparability and minimize experimental bias. […]
# ΔrecA ΔrecB cells [4] = assay: DNA degradation assay after UV ("reckless" DNA degradation); format: cell-based, Escherichia coli; conditions: expressed from pUT18C in ΔrecA ΔrecB; UV 50 J/m^2, 3 h; Hoechst 33258 microscopy
# Description: as §1, §2, §3
# recB strains = conditions: RecB mutation D1080A; ref [82]; cited from earlier work
# RecA = conditions: RecB mutation D1080A; ref [82]; cited from earlier work
molecule,measurement,setting,value
"GQADMFG [DNA polymerase III internal CBM peptide, positive control, reference compound]",STD-NMR binding,β-clamp,clear binding
"EQVELEFD [DNA polymerase III C-terminal CBM peptide, positive control, reference compound]",STD-NMR binding,β-clamp,clear binding
GKNQALRFV [RecB helicase motif peptide (residues 485–489) with one C-terminal and three N-terminal flanking residues],STD-NMR binding,β-clamp,did not exhibit detectable STD signals under the conditions tested
GKNQALRAV [phenylalanine-to-alanine variant of the RecB helicase motif peptide],STD-NMR binding,β-clamp,did not exhibit detectable STD signals under the conditions tested
KQVEMEAY [QVEMEF variant in which the terminal phenylalanine was replaced with alanine],STD-NMR binding,β-clamp,no detectable binding
B1,Kd,[1],2000 nM
B2,binding result,[2],binds
B3,RecB expression level relative to endogenous RecB,BTH101 ΔrecB cells,~2 times
same,basal DNA content,ΔrecA ΔrecB cells [3],No significant difference in DNA content
same,reckless DNA degradation after UV,ΔrecA ΔrecB cells [4],did not
B4,survival rates after UV exposure,recB strains,comparable to those observed in strains with a complete recB deletion
same,interaction between RecB and RecA,RecA,disrupts the interaction between RecB and RecA
B5,binding result,[2],binds

# Source: PMC13254535, “The RecBCD complex interacts directly with the DNA sliding clamp in Escherichia coli” (Nucleic Acids Research, 2026)
